The target in this assay is T1, G3p N1 (Filamentous phage, UniProt O80297).
T1 chain: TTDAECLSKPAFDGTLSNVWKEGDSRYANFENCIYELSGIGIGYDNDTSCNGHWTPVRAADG
Description: SPR. On the technique in general: SPR reads the build-up and loss of mass on a sensor chip optically.

The values below come from PMC4339652 (2015).

B1: TolA TolAIII (protein)
chain: GGGAKGNNASPAGSGNTKNNGASGADINNYAGQIKSAIESKFYDASSYAGKTCTLRIKLAPDGMLLDIKPEGGDPALCQAALAAAKLAKIPKPPSQAVYEVFKNAPLDFKP
B1 showed a Kd of 14.9 µM.

For orientation: Kd means the free concentration of one partner at which half of the binding sites on the other are occupied at equilibrium, for simple one-to-one binding.
